The data set deals with the molecule itself. As to the kind of experiment: cryo-EM structure; single particle analysis of RNase E (1-529) at 10 uM without RNA, 8 mM CHAPSO; 7.8 A reconstruction, C1.

B1: RNase E catalytic domain (1-529) (domain or fragment)
chain: not shown
notes: RNase E, E. coli, catalytic domain, residues 1-529; Studied without RNA; 8 mM CHAPSO added before grid freezing; also called RNase E catalytic core; RNase E (1-529); source: E. coli BL21(DE3), plasmid pRne529-N, purified (Ni chelating column, gel filtration)
One may read the stoichiometry N as a count of units in the complex or per binding partner. Take B1: the “stoichiometry N” value worked out at 4.

Values taken from PMC7613265, “Multi-scale ensemble properties of the Escherichia coli RNA degradosome” (Molecular microbiology, 2021).
